This is an account of results in PMC3750215.

What is called Kd is the equilibrium constant for the complex coming apart.

The series deals with Mdj1 (wt, mature). Description: EMSA. The conditions noted are these: EMSA with 0.36 nM 32P-ori5 DNA; buffer, salt, pH and temperature not given (as described in ref 35). On the technique in general: In EMSA bound probe runs differently from free probe, usually more slowly.

Turning to ori5 71 bp fragment, the equilibrium dissociation constant (Kd) turned out to be 210 nM.
